Our source for the Kd, koff and kon values is patent EP1899377B1 (GLAXO GROUP LIMITED, dated 2012).

The labels stand for the following.
T1: GST-human NOGO-A56 (human, UniProt Q9NQC3 586-785)
T1 construct: GST-tagged fusion expressed in E. coli BL21 from pGEX-6P1; also called hNOGO; human NOGO 5+6 GST; not shown: Glutathione S-transferase tag encoded by vector pGEX-6P1 (N-terminal, with vector linker)
T1 sequence: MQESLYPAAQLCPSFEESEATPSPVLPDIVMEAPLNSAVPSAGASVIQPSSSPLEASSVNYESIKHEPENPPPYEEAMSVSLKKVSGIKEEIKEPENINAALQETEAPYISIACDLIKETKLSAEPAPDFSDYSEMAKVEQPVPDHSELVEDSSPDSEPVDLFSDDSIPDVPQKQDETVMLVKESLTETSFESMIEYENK

B1: H22L16 (antibody, human IgG1, kappa, V domains shown)
VH: QVQLVQSGAEVKKPGASVKVSCKASGYTFTSYWMHWVKQRPGQGLEWIGNINPSNGGTNYNEKFKSKATMTRDTSTSTAYMELSSLRSEDTAVYYCELGQGYWGQGTLVTVSS
VL: DIVMTQSPLSNPVTLGQPVSISCRSSKSLLYKDGKTYLNWFLQRPGQSPQLLIYLMSTRASGVPDRFSGGGSGTDFTLKISRVEAEDVGVYYCQQLVEYPLTFGQGTKLEIKR
notes: human gamma1 mutated constant region, human kappa
B2: H16L13 (antibody, human IgG1, kappa)
heavy: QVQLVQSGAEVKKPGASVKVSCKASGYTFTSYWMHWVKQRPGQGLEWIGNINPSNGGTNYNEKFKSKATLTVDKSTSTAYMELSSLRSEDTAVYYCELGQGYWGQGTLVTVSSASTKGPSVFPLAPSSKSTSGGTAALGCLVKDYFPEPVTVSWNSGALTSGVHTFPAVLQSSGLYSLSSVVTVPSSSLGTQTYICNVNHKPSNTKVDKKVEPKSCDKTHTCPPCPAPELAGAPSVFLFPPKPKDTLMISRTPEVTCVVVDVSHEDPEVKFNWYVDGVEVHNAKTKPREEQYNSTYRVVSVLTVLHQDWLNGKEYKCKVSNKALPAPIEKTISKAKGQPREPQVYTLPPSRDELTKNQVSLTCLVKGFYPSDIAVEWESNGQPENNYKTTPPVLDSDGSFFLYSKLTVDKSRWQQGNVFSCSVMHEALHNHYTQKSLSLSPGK
light: DIVMTQSPLSLPVTLGQPASISCRSSKSLLYKDGKTYLNWFQQRPGQSPQLLIYLMSTRASGVPDRFSGGGSGTDFTLKISRVEAEDVGVYYCQQLVEYPLTFGQGTKLEIKRTVAAPSVFIFPPSDEQLKSGTASVVCLLNNFYPREAKVQWKVDNALQSGNSQESVTEQDSKDSTYSLSSTLTLSKADYEKHKVYACEVTHQGLSSPVTKSFNRGEC
B3: H1L11 (antibody, human IgG1, kappa, V domains shown)
VH: B1 VH with K38R, R40A, I48M, K67R, A68V, A79V
VL: B1 VL with M4I, N11L, V19A, L42Q
B4: H6L13 (antibody, human IgG1, kappa, V domains shown)
VH: B1 VH with K38R, R40A, K67R
VL: B1 VL with N11L, V19A, L42Q
B5: H20Lc (antibody, human IgG1, kappa, V domains shown)
VH: B1 VH with K38R, R40A
VL: DIVITQDELSNPVTSGESVSISCRSSKSLLYKDGKTYLNWFLQRPGQSPQLLIYLMSTRASGVSDRFSGSGSGTDFTLEISRVKAEDVGVYYCQQLVEYPLTFGAGTKLELKR
B6: H23Lc (antibody, human IgG1, kappa, V domains shown)
VH: B1 VH with R72V
VL: B5 VL
B7: H21Lc (antibody, human IgG1, kappa, V domains shown)
VH: B1 VH with K38R
VL: B5 VL
B8: H24Lc (antibody, human IgG1, kappa, V domains shown)
VH: B1 VH with M70L, R72V
VL: B5 VL
B9: H19Lc (antibody, human IgG1, kappa, V domains shown)
VH: B1 VH with K38R, K67R
VL: B5 VL
B10: H19L13 (antibody, human IgG1, kappa, V domains shown)
VH: B1 VH with K38R, K67R
VL: B1 VL with N11L, V19A, L42Q
B11: H16L18 (antibody, human IgG1, kappa, V domains shown)
VH: B1 VH with M70L, R72V, T74K
VL: B1 VL with S7D, P64S, G70S
B12: H21L13 (antibody, human IgG1, kappa, V domains shown)
VH: B1 VH with K38R
VL: B1 VL with N11L, V19A, L42Q
B13: H24L13 (antibody, human IgG1, kappa, V domains shown)
VH: B1 VH with M70L, R72V
VL: B1 VL with N11L, V19A, L42Q
B14: H23L13 (antibody, human IgG1, kappa, V domains shown)
VH: B1 VH with R72V
VL: B1 VL with N11L, V19A, L42Q
B15: H19L16 (antibody, human IgG1, kappa, V domains shown)
VH: B1 VH with K38R, K67R
VL: B1 VL
B16: H22Lc (antibody, human IgG1, kappa, V domains shown)
VH: B1 VH
VL: B5 VL
B17: H23L16 (antibody, human IgG1, kappa, V domains shown)
VH: B1 VH with R72V
VL: B1 VL
notes: as for B1
B18: H24L16 (antibody, human IgG1, kappa, V domains shown)
VH: B1 VH with M70L, R72V
VL: B1 VL
notes: as for B1

Numbering of substitutions follows the chain as printed.

The target in one assay is T1, GST-human NOGO-A56. Description: SPR (Biacore), GST-human NOGO-A56 immobilised, purified antibody as analyte; single experiment.
In general, Kd refers to the free concentration of one partner at which half of the binding sites on the other are occupied at equilibrium, for simple one-to-one binding. High values mean lower affinity, low ones higher affinity. By koff is commonly meant the first-order rate constant of dissociation. As usually defined, the kon is a measure of how fast the partners come together. High values mean faster complex formation, low ones slower complex formation. In turn, B1 yielded a Kd of 1.33 nM, a koff of 0.00759 s⁻¹ and a kon of 5.69e+06 M⁻¹ s⁻¹.
For B2, in that order: 2.53 nM, 0.0121 s⁻¹ and 4.76e+06 M⁻¹ s⁻¹.
On the same counts, the results for B3 are 18.4 nM, 0.0219 s⁻¹ and 1.19e+06 M⁻¹ s⁻¹.
For B4, in that order: 8.1 nM, 0.0155 s⁻¹ and 1.91e+06 M⁻¹ s⁻¹.

Another assay addresses T1, GST-human NOGO-A56. Description: SPR off-rate ranking, supernatant from small-scale transient transfection over immobilised GST-human NOGO-A56; single experiment.
B1 gave a koff of 0.00778 s⁻¹.
The same measure, in the same setting: in the case of B5 it was 0.00507 s⁻¹; in that of B6, 0.00342 s⁻¹.
On the same count and under the same terms, as for B7, the figure is 0.00569 s⁻¹; as for B8, 0.00383 s⁻¹; as for B9, 0.00595 s⁻¹.
Molecule B10 displayed a koff of 0.013 s⁻¹.
Molecule B11 displayed a koff of 0.00566 s⁻¹.
The same measure, in the same setting: in the case of B2 it was 0.0138 s⁻¹; in that of B12, 0.012 s⁻¹.
Still for that read-out and setting: in the case of B3 it was 0.0196 s⁻¹; in that of B13, 0.00996 s⁻¹; in that of B14, 0.00956 s⁻¹.
Still for that read-out and setting: in the case of B15 it was 0.00873 s⁻¹; in that of B16, 0.00467 s⁻¹; in that of B17, 0.00606 s⁻¹.
For the molecule B18, the dissociation rate constant (koff) was determined as 0.00585 s⁻¹.

Another assay has as its target T1, GST-human NOGO-A56. The assay can be described thus: SPR (Biacore), GST-human NOGO-A56 immobilised, purified antibody as analyte; single experiment. This is another data set of the same source. For orientation: SPR reads the build-up and loss of mass on a sensor chip optically.
Consider B1, for which the Kd worked out at 1.32 nM, the koff was determined as 0.00767 s⁻¹ and the association rate constant (kon) is 5.83e+06 M⁻¹ s⁻¹.
On the same counts, the results for B3 are 21 nM, 0.0282 s⁻¹ and 1.34e+06 M⁻¹ s⁻¹.
Molecule B4 came in with a dissociation constant Kd of 7.76 nM, an off-rate (koff) of 0.0157 s⁻¹ and a kon of 2.02e+06 M⁻¹ s⁻¹.
As to B17, binding was put at a Kd of 1.99 nM, the koff is 0.00587 s⁻¹ and the kon came to 2.95e+06 M⁻¹ s⁻¹.
For B18, in that order: 2.49 nM, 0.00572 s⁻¹ and 2.3e+06 M⁻¹ s⁻¹.

In another assay the target is T1, GST-human NOGO-A56. The assay is described as above. This is another data set of the same source.
For the molecule B1, the affinity, expressed as Kd, was 1.47 nM; the off-rate (koff) was 0.0069 s⁻¹; the kon was found to be 4.9e+06 M⁻¹ s⁻¹.
For B3, in that order: 22.3 nM, 0.031 s⁻¹ and 1.4e+06 M⁻¹ s⁻¹.
For B4, in that order: 6.4 nM, 0.014 s⁻¹ and 2.2e+06 M⁻¹ s⁻¹.
Regarding B17, the Kd was 3.8 nM, the off-rate (koff) was determined as 0.0064 s⁻¹ and the on-rate (kon) turned out to be 1.9e+06 M⁻¹ s⁻¹.
The molecule B18 had an equilibrium dissociation constant (Kd) of 3.7 nM, an off-rate constant (koff) of 0.0069 s⁻¹ and an on-rate constant (kon) of 1.9e+06 M⁻¹ s⁻¹.
